The target of one test is T1, sHLA-E*01:03 (Homo sapiens, UniProt P13747).
T1 construct: A soluble construct of HLA-E*01:03 was constructed by removing the transmembrane and cytoplasmic domains; expressed in transfected cells; host or cells: human U-373MG cells, uninfected or infected with CMV strain AD169
Put plainly: Identification of peptides eluted from soluble HLA-E of CMV-infected vs uninfected U-373MG cells by immunoaffinity purification and LC-MS/MS. The class given is binding.

Another test has as its target T2, CD94-NKG2A (Homo sapiens, UniProt P13747+P26715+Q13241).
T2 construct: a linker into which cDNA encoding the extracellular domain of type II membrane proteins is inserted; Flag (N); CD8 leader (N); made in house; host or cells: 293T cells for the Fc fusion proteins; mouse RMA-S transfectants for HLA-E and B2M
To be noted: peptide bound to HLA-E; cited from earlier work.

A further test concerns the target T3, CD94-NKG2C (Homo sapiens, UniProt P13747+P26717+Q13241).
T3 construct: a linker into which cDNA encoding the extracellular domain of type II membrane proteins is inserted; Flag (N); CD8 leader (N); made in house; host or cells: 293T cells for the Fc fusion proteins; mouse RMA-S transfectants for HLA-E and B2M
The following applies: peptide bound to HLA-E; cited from earlier work.

Setting [1] is: number of spectra found for the HCMV peptide listed as HLA-E ligand (Table 1).
The mark [2] stands for this setting: number of spectra for the peptide, LC-MS/MS identification of HLA-E ligands (Table 1).

Ends that are not written are not given here.

T3 sequence (Q13241 32-179): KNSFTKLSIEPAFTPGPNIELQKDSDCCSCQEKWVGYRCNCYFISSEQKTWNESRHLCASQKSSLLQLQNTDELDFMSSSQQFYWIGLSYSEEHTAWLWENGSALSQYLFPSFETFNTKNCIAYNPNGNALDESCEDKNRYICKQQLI
T3 sequence (P61769 21-119, further chain): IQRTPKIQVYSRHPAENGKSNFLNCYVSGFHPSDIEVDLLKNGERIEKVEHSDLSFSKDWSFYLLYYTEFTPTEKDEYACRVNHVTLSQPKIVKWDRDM
T3 sequence (P13747 22-358): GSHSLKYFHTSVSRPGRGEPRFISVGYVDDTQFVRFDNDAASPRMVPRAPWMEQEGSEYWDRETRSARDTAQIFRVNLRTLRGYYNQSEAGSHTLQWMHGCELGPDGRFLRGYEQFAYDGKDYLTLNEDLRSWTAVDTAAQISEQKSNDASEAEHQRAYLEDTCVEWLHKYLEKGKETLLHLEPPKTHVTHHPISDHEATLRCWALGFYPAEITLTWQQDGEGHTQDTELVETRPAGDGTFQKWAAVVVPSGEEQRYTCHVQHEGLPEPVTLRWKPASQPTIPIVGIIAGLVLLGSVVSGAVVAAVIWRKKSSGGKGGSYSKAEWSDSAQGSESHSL
T3 sequence (P26717 94-231): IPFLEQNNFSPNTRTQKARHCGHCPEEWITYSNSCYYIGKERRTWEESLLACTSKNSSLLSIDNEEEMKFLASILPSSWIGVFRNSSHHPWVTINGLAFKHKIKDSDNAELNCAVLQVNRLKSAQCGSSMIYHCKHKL
T2 sequence (P61769 21-119): as the sequence (P61769 21-119, further chain) above
T2 sequence (P26715 94-233): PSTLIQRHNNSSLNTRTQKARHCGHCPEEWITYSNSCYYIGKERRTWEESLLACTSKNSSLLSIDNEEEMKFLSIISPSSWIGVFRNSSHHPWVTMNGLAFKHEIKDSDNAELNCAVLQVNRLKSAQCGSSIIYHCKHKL
T2 sequence (P13747 22-358): as the sequence (P13747 22-358) above
T2 sequence (Q13241 32-179): as the sequence (Q13241 32-179) above

In the case of APSQKSKRSVTVEQPSTSADGSN (7), the “# Spec” value with sHLA-E*01:03 (setting [1]) was 21. The same measure, in the same setting: in the case of AQGDDDVWTSGSDSDEELVTTER (85) it was 393.

For the sequence ARERGEFGDEDEEQEND (22), in the test with sHLA-E*01:03 (setting [1]), the “# Spec” value stood at 351. Still for that read-out and setting: in the case of ARERGEFGDEDEEQENDGEPR (21) it was 351; in that of DDDVWTSGSDSDEELVTTER (87), 396. Still for that read-out and setting: the result for EAGGVGGSSGGGGGSGLLPAKRS (55) reads 1211; that for GPGLDNDLMNEPMGLGGLGGGGGGGGKKH (43), 312.

Consider HRHLPVAD (82), for which the “# Spec” value in the test with sHLA-E*01:03 (setting [1]) came to 139. The same measure, in the same setting: the result for “MDGDVRTAADISSTER (63) (MDGDVRTAADISSTLR)” reads 519; that for PATLTAYDK (57), 572. Turning to PNTYIHKTETD (60), in the test with sHLA-E*01:03 (setting [1]), the “# Spec” value stood at 221.

As to PTYDELPSRPPQ (4), in the test with sHLA-E*01:03 (setting [1]), the “# Spec” value turned out to be 730. In the case of PVTGEDTFSAHGKSD (52), the “# Spec” value in the test with sHLA-E*01:03 (setting [1]) is given as 615.

As to RSVTVEQPSTSAD (9), the “# Spec” value in the test with sHLA-E*01:03 (setting [1]) worked out at 28. For the sequence SASSATACTSGVMT, the “# Spec” value with sHLA-E*01:03 (setting [2]) was 439. Take SASSATACTSGVMTR: the “# Spec” value in the test with sHLA-E*01:03 (setting [2]) amounted to 439.

In the case of SDEELVTTER, the “# Spec” value in the test with sHLA-E*01:03 (setting [2]) is listed as 406. Regarding SQKSKRSVTVEQPSTSAD (8), the “# Spec” value with sHLA-E*01:03 (setting [1]) was 23. On the same count and under the same terms, the result for SSVSGVRTPR (17) (also: PTM present) reads 2; that for SVPAPRPSPISTAST (72), “$35”. Take SVTVEQPSTSA (12): the “# Spec” value with sHLA-E*01:03 (setting [1]) is on record as 29. As to VLGPISGHV (78), in the test with sHLA-E*01:03 (setting [1]), the “# Spec” value came out at 14. As for VLGPISGHVLK (79), the “# Spec” value in the test with sHLA-E*01:03 (setting [1]) is listed as 14.

As to VMAPRTLFL [HLA-G leader peptide], the “binding of HLA-E/peptide to CD94-NKG2A” value with CD94-NKG2A was “bind both CD94-NKG2A and CD94-NKG2C (albeit with low affinity)”. The “binding of HLA-E/peptide to CD94-NKG2C” value with CD94-NKG2C was “bind both CD94-NKG2A and CD94-NKG2C (albeit with low affinity)”.

For VRTAADISSTLR (67), the “# Spec” value with sHLA-E*01:03 (setting [1]) was 2. On to VRTAADISSTLRSVPAPRPSP (66), for which the “# Spec” value with sHLA-E*01:03 (setting [1]) was 3. On the same count and under the same terms, in the case of VRTAADISSTLRSVPAPRPSPISTA (68) it was 3. Still for that read-out and setting: in the case of VTFEFVPNTK (46) it was 419. For VTGGGAMAGASTSAGR, the “# Spec” value with sHLA-E*01:03 (setting [2]) amounted to 420. Take VTVEQPSTSAD (13): the “# Spec” value in the test with sHLA-E*01:03 (setting [1]) is reported as 30. With VWTSGSDSDEELVTTE (91), the “# Spec” value with sHLA-E*01:03 (setting [1]) stood at 399.

These data come from patent publication US20240041994A1, “CMV VACCINE AND METHOD OF MAKING AND USING THE SAME” (priority 2017, published 2024).
